Reference: the supplement of paper PMC10126150
± gives the standard deviation of the averaged measurements.

System: ATP
Assay: switch fluorescence ratio, 500 uM ATP over buffer (Cy3 cluster intensity, sum of 5 cycles each) (fold (ratio)); higher = stronger signal-on switching upon ATP binding; sequences stand for … in TCGTCGGCAGCGTCAGATGTGTATAAGAGACAGTTTTTTTTTTTTTTTTTTTTTTTTT…TC
Conditions: aptamer strand: ATP DNA aptamer (quencher-CACCTGGGGGAGTATTGCGGAGGAAGG + anchor), 100 nM annealed; ATP concentration: 500 uM
Method in brief: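 Clusters with intensities outside 100-1000 RFU were excluded. The remaining Cy3-labelled switching-strand clusters on a modified Illumina MiSeq flow-cell had been annealed to 100 nM quencher-labelled ATP aptamer and imaged in selection buffer, then after 15 min with 500 uM ATP at 22 °C, for five cycles separated by NaOH stripping and re-annealing. The fluorescence ratio, averaged per switch-domain sequence, is each cluster's summed target-cycle Cy3 intensity over its summed buffer-cycle Cy3 intensity.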
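Note: ATP exposure 15 min at 22 °C before imaging.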

Sequence	switch fluorescence ratio
TACGTTGACC	1.26 ± 0.016
TACGTTTTAA	0.9938 ± 0.0087
TACGTTTTTT	1.05 ± 0.07
TACTAAGAAT	2.35 ± 1.9
TACTAAGAGA	1.03 ± 0.029
TACTAAGTAT	0.996 ± 0.069
TACTACTTCT	1.02 ± 0.023
TACTAGAAGA	1.03 ± 0.039
TACTCACTGT	1.219 ± 0.0069
TACTCAGGTT	2.25 ± 1.8
TACTCCGGTT	2.02 ± 0.19
TACTGAGCAG	1.019 ± 0.003
TACTGAGCAT	1.24 ± 0.086
TACTGCAGAT	1.002 ± 0.0025
TACTGCGGAA	1.79 ± 1.2
TACTGGAGTA	1.01 ± 0.018
TACTGGCTGC	1.02 ± 0.0078
TACTGGGGGT	1.04 ± 0.074
TACTGTGGTT	1 ± 0.018
TACTTAGTGG	1.02 ± 0.017
TACTTCAAGG	1.02 ± 0.03
TACTTCTCCA	1.04 ± 0.016
TACTTCTTTT	0.958 ± 0.015
TACTTGAATT	1.02 ± 0.018
TACTTGGACT	1.06 ± 0.018

Sequence	switch fluorescence ratio
TACTTGGCTT	1.02 ± 0.031
TACTTTAGCT	1.109 ± 0.0069
TACTTTCGGT	1 ± 0.013
TACTTTGGGA	0.98 ± 0.043
TACTTTTTAG	1.02 ± 0.029
TAGAAAAATG	0.991 ± 0.029
TAGAAAATGG	1 ± 0.029
TAGAAAATTT	1 ± 0.022
TAGAAACACT	1.05 ± 0.02
TAGAAAGGCC	1.03 ± 0.037
TAGAAAGGGA	1.02 ± 0.039
TAGAACAAAA	0.99 ± 0.015
TAGAAGGCTT	0.9989 ± 0.0076
TAGAAGGTTC	1.17 ± 0.29
TAGAAGGTTG	0.972 ± 0.018
TAGAAGTAGG	1.01 ± 0.037
TAGAATACTT	0.996 ± 0.016
TAGAATCAGC	0.99 ± 0.07
TAGACAAGAT	1.04 ± 0.0028
TAGACCTCCC	1.81 ± 0.16
TAGACGGGGA	0.984 ± 0.046
TAGAGAAGCA	1.012 ± 0.0061
TAGAGAATCG	1.065 ± 0.0062
TAGAGCAGGT	1.03 ± 0.011
TAGAGGCAGC	0.999 ± 0.044

Sequence	switch fluorescence ratio
TAGAGGCCGG	1 ± 0.003
TAGAGGCTGA	0.9937 ± 0.0054
TAGAGGGT	0.9989 ± 0.0016
TAGAGTGGGG	0.994 ± 0.023
TAGATAATGC	1.075 ± 0.0049
TAGATATCTG	0.974 ± 0.0098
TAGATATGTA	1.02 ± 0.043
TAGATCGTTG	0.977 ± 0.04
TAGATGAGCA	0.965 ± 0.07
TAGATGCATG	1 ± 0.031
TAGATGGCGG	1 ± 0.013
TAGATGTCCG	0.922 ± 0.098
TAGATTGTA	1.01 ± 0.029
TAGATTTTAT	1.01 ± 0.042
TAGATTTTTG	0.982 ± 0.036
TAGCAATGGC	2.42 ± 0.14
TAGCACGCGG	0.9748 ± 0.0041
TAGCAGGACT	1.76 ± 0.22
TAGCATCTGT	1 ± 0.03
TAGCATGGGG	0.991 ± 0.016
TAGCATGGTA	0.976 ± 0.049
TAGCATTCAT	0.994 ± 0.0072
TAGCCGACGG	1.03 ± 0.058
TAGCCTAATG	1.0049 ± 0.00065
TAGCCTAGGT	1.02 ± 0.017

Sequence	switch fluorescence ratio
TAGCCTATTG	0.979 ± 0.038
TAGCCTGTTG	0.9667 ± 0.002
TAGCGCTGCC	0.984 ± 0.012
TAGCGGAAGT	0.999 ± 0.017
TAGCGGCGT	0.9938 ± 0.0097
TAGCGGGATT	1.02 ± 0.033
TAGCGTGAGC	1.02 ± 0.04
TAGCTAGATG	1.02 ± 0.022
TAGCTATTGT	0.984 ± 0.012
TAGCTCAGGG	1.065 ± 0.0032
TAGCTGACTG	1.02 ± 0.04
TAGCTGGATA	0.9837 ± 0.005
TAGCTTCAC	1.142 ± 0.0084
TAGCTTGGGA	1.01 ± 0.026
TAGCTTGGGG	0.9985 ± 0.0046
TAGCTTTAAC	1.0888 ± 0.00092
TAGGAAAGGC	0.982 ± 0.027
TAGGAAATCT	1.03 ± 0.017
TAGGAAATGT	1.07 ± 0.087
TAGGAAGAGG	0.986 ± 0.0068
TAGGAATTTG	0.998 ± 0.037
TAGGAGAGGG	0.968 ± 0.034
TAGGAGGAGG	0.984 ± 0.011
TAGGAGGCGC	0.937 ± 0.064
TAGGAGTGAG	0.979 ± 0.026

Sequence	switch fluorescence ratio
TAGGATAGTG	0.978 ± 0.043
TAGGATCCC	0.981 ± 0.026
TAGGATCGGA	0.96 ± 0.032
TAGGATGGCC	0.9522 ± 0.0012
TAGGATTGGG	0.9894 ± 0.0053
TAGGATTTAG	0.994 ± 0.039
TAGGATTTTT	1.026 ± 0.0081
TAGGCACCGA	1.03 ± 0.053
TAGGCACCTG	1.0679 ± 0.00092
TAGGCCATAG	1.008 ± 0.0055
TAGGCGTAGG	0.9876 ± 0.0018
TAGGCTAGGC	0.971 ± 0.022
TAGGCTCGG	1.014 ± 0.0019
TAGGCTCGGG	0.99 ± 0.038
TAGGCTCTTT	0.9777 ± 0.008
TAGGCTTTAA	0.976 ± 0.011
TAGGGAATGT	1 ± 0.019
TAGGGAATTG	1.01 ± 0.011
TAGGGACAGG	0.99 ± 0.038
TAGGGATCGT	0.98 ± 0.051
TAGGGATGAT	0.9705 ± 0.0026
TAGGGATTCT	0.995 ± 0.026
TAGGGGAAGA	1.003 ± 0.0076
TAGGGGATGC	1 ± 0.015
TAGGGGCGCG	0.982 ± 0.078

Sequence	switch fluorescence ratio
TAGGGGGAAA	1.01 ± 0.024
TAGGGGGAAC	1.01 ± 0.022
TAGGGGGAT	1.01 ± 0.011
TAGGGGGCAG	1 ± 0.033
TAGGGGGGCG	1.01 ± 0.085
TAGGGGGTTA	0.992 ± 0.046
TAGGGGTAGA	1.017 ± 0.0054
TAGGGGTCGG	0.981 ± 0.048
TAGGGGTGCA	1.079 ± 0.009
TAGGGGTGTT	1.06 ± 0.12
TAGGGGTTTT	1.01 ± 0.024
TAGGGTAAGG	0.97 ± 0.035
TAGGGTAATT	0.9965 ± 0.0041
TAGGGTAGCG	0.99 ± 0.012
TAGGGTATG	0.983 ± 0.053
TAGGGTCGGG	0.9466 ± 0.0037
TAGGGTCTGT	0.999 ± 0.022
TAGGGTGCGG	1.03 ± 0.021
TAGGGTGCGT	1 ± 0.027
TAGGGTGCTT	1.04 ± 0.036
TAGGGTTCTT	1.03 ± 0.029
TAGGTAAGGT	1.03 ± 0.029
TAGGTAGAGT	0.9899 ± 0.006
TAGGTAGCGG	0.9996 ± 0.0076
TAGGTATATC	0.9843 ± 0.006

Sequence	switch fluorescence ratio
TAGGTATTGT	1.003 ± 0.0091
TAGGTGACTG	0.982 ± 0.037
TAGGTGCATA	1.03 ± 0.043
TAGGTGGCGC	1.08 ± 0.013
TAGGTGTCAT	1.15 ± 0.32
TAGGTGTTTT	1.05 ± 0.047
TAGGTTGAGT	0.996 ± 0.061
TAGGTTGGTC	1.02 ± 0.064
TAGGTTTGCG	0.994 ± 0.053
TAGTAAATCG	1.007 ± 0.0078
TAGTAAATGG	0.999 ± 0.017
TAGTAATCTT	1.003 ± 0.0092
TAGTAATGTG	0.993 ± 0.022
TAGTAATTGG	0.987 ± 0.029
TAGTACTGTG	0.998 ± 0.017
TAGTAGATGT	1.01 ± 0.036
TAGTAGGGGA	1.01 ± 0.039
TAGTATGGTA	1.01 ± 0.011
TAGTATTAGA	0.993 ± 0.031
TAGTCATGCG	1.04 ± 0.026
TAGTCCAAAT	0.9738 ± 0.0018
TAGTCGAGAT	0.989 ± 0.029
TAGTCGCCGA	0.986 ± 0.017
TAGTCGGCGC	1 ± 0.047
TAGTCTAGGT	1.02 ± 0.025

Sequence	switch fluorescence ratio
TAGTCTGTTC	1.01 ± 0.045
TAGTCTTTAG	1.01 ± 0.0072
TAGTGAGGGT	1.01 ± 0.021
TAGTGAGTAC	0.93 ± 0.11
TAGTGATACG	0.986 ± 0.05
TAGTGATGGT	0.973 ± 0.029
TAGTGGAAAA	1.02 ± 0.077
TAGTGGATGG	1 ± 0.029
TAGTGGGAAT	0.968 ± 0.032
TAGTGGGGAC	0.9677 ± 0.0027
TAGTGTAGGC	1.03 ± 0.014
TAGTGTATTC	0.989 ± 0.026
TAGTGTCTAG	0.97 ± 0.07
TAGTGTGGG	0.99 ± 0.024
TAGTGTTTGG	1.02 ± 0.073
TAGTTAATTT	1.01 ± 0.034
TAGTTACCCG	0.979 ± 0.045
TAGTTACTGG	1.05 ± 0.021
TAGTTAGGAG	0.9945 ± 0.0081
TAGTTAGGCG	0.959 ± 0.028
TAGTTATGTT	0.96389 ± 0.00072
TAGTTATTAC	1.08 ± 0.14
TAGTTATTTG	0.993 ± 0.044
TAGTTCGGGG	1.01 ± 0.024
TAGTTCTGTT	0.983 ± 0.0077
